Assay results from the supplement of paper PMC11780869.

Test system: Bacillus subtilis
Test: cleaved RNA product abundance (RNA/gDNA barcode ratio) relative to median wild-type variant (ratio to wild type); higher = more accumulation of the downstream cleavage product
Conditions: cleavage site: cggR-gapA (positions -7 to +36 mutated)
How it was run: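 Truncated aprE or tetM reporter mRNAs with barcoded RNase Y cleavage-site windows, mutagenized from oligos at a 9% error rate, sat in the B. subtilis chromosome. Cells grew in LB at 37°C from OD600 0.0003 to 0.3. Gel-selected cleaved RNA was reverse transcribed and its barcodes sequenced with those from genomic DNA, collapsing by UMI. Cleaved product abundance equals the RNA:gDNA barcode ratio per construct over the median construct with the unmutated site.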

[1] = experiment (reporter, strain, medium): exp 2b: truncated aprE reporter, strain BJT200
[2] = experiment (reporter, strain, medium): exp 4a: truncated aprE reporter, strain BJT201 with 2% xylose (RNase J1 expressed)
[3] = experiment (reporter, strain, medium): exp 6: tetM reporter, strain 168

| Sequence | cleaved RNA product abundance [1] | cleaved RNA product abundance [2] | cleaved RNA product abundance [3] |
| --- | --- | --- | --- |
| ACAGACGAAGGAGCCGCAAAGAAGTTATTAAAGGATGAACAATCCCTCAATATAAATATCTCTCACTTATTTAAA | 0.0976 | 0.207 |  |
| ACAGACGAAGGAGCCGCAAAGAAGTTATTAAAGGATGAAGAATCCCTCAATATAAATATCTCTCACTTATTTAAA |  | 0.232 |  |
| ACAGACGAAGGAGCCGCAAAGAAGTTATTAAAGGATGAATAAACCCTCAATATAAATATCTCTCACTTATTTAAA | 0.115 | 0.101 |  |
| ACAGACGAAGGAGCCGCAAAGAAGTTATTAAAGGATGAATAACCCCTCAATATAAATATCTCTCACTTATTTAAA | 0.105 | 0.108 |  |
| ACAGACGAAGGAGCCGCAAAGAAGTTATTAAAGGATGAATAATACCTCAATATAAATATCTCTCACTTATTTAAA | 0.0942 | 0.121 | 0.108 |
| ACAGACGAAGGAGCCGCAAAGAAGTTATTAAAGGATGAATAATCACTCAATATAAATATCTCTCACTTATTTAAA | 0.0796 | 0.14 |  |
| ACAGACGAAGGAGCCGCAAAGAAGTTATTAAAGGATGAATAATCCATCAATATAAATATCTCTCACTTATTTAAA | 0.141 | 0.178 |  |
| ACAGACGAAGGAGCCGCAAAGAAGTTATTAAAGGATGAATAATCCCACAATATAAATATCTCTCACTTATTTAAA | 0.113 | 0.173 |  |
| ACAGACGAAGGAGCCGCAAAGAAGTTATTAAAGGATGAATAATCCCCCAATATAAATATCTCTCACTTATTTAAA | 0.152 | 0.156 |  |
| ACAGACGAAGGAGCCGCAAAGAAGTTATTAAAGGATGAATAATCCCCTCAATATAAATATCTCTCACTTATTTAA |  | 0.159 |  |
| ACAGACGAAGGAGCCGCAAAGAAGTTATTAAAGGATGAATAATCCCGCAATATAAATATCTCTCACTTATTTAAA |  | 0.219 |  |
| ACAGACGAAGGAGCCGCAAAGAAGTTATTAAAGGATGAATAATCCCTAAATATAAATATCTCTCACTTATTTAAA | 0.232 | 0.342 |  |
| ACAGACGAAGGAGCCGCAAAGAAGTTATTAAAGGATGAATAATCCCTCAAAATAAATATCTCTCACTTATTTAAA | 0.148 | 0.152 |  |
| ACAGACGAAGGAGCCGCAAAGAAGTTATTAAAGGATGAATAATCCCTCAACATAAATATCTCTCACTTATTTAAA |  | 0.265 |  |
| ACAGACGAAGGAGCCGCAAAGAAGTTATTAAAGGATGAATAATCCCTCAATACAAATATCTCTCACTTATTTAAA | 0.126 | 0.0875 |  |
| ACAGACGAAGGAGCCGCAAAGAAGTTATTAAAGGATGAATAATCCCTCAATAGAAATATCTCTCACTTATTTAAA | 0.111 | 0.107 |  |
| ACAGACGAAGGAGCCGCAAAGAAGTTATTAAAGGATGAATAATCCCTCAATATAAAAATCTCTCACTTATTTAAA | 0.147 | 0.244 |  |
| ACAGACGAAGGAGCCGCAAAGAAGTTATTAAAGGATGAATAATCCCTCAATATAAACATCTCTCACTTATTTAAA |  | 0.206 |  |
| ACAGACGAAGGAGCCGCAAAGAAGTTATTAAAGGATGAATAATCCCTCAATATAAATAACTCTCACTTATTTAAA | 0.157 | 0.229 |  |

| Sequence | cleaved RNA product abundance [1] | cleaved RNA product abundance [2] | cleaved RNA product abundance [3] |
| --- | --- | --- | --- |
| ACAGACGAAGGAGCCGCAAAGAAGTTATTAAAGGATGAATAATCCCTCAATATAAATACCTCTCACTTATTTAAA |  | 0.13 |  |
| ACAGACGAAGGAGCCGCAAAGAAGTTATTAAAGGATGAATAATCCCTCAATATAAATAGCTCTCACTTATTTAAA |  | 0.176 |  |
| ACAGACGAAGGAGCCGCAAAGAAGTTATTAAAGGATGAATAATCCCTCAATATAAATATATCTCACTTATTTAAA |  | 0.259 |  |
| ACAGACGAAGGAGCCGCAAAGAAGTTATTAAAGGATGAATAATCCCTCAATATAAATATCTCTCACTTATTTAAA | 0.162 | 0.211 | 0.242 |
| ACAGACGAAGGAGCCGCAAAGAAGTTATTAAAGGATGAATAATCCCTCAATATAAATATTTCTCACTTATTTAAA |  | 0.247 |  |
| ACAGACGAAGGAGCCGCAAAGAAGTTATTAAAGGATGAATAATCCCTCAATATAAATCTCTCTCACTTATTTAAA |  | 0.208 |  |
| ACAGACGAAGGAGCCGCAAAGAAGTTATTAAAGGATGAATAATCCCTCAATATAAATGTCTCTCACTTATTTAAA | 0.136 | 0.155 |  |
| ACAGACGAAGGAGCCGCAAAGAAGTTATTAAAGGATGAATAATCCCTCAATATAATTATCTCTCACTTATTTAAA |  | 0.161 |  |
| ACAGACGAAGGAGCCGCAAAGAAGTTATTAAAGGATGAATAATCCCTCAATATACATATCTCTCACTTATTTAAA |  | 0.17 | 0.136 |
| ACAGACGAAGGAGCCGCAAAGAAGTTATTAAAGGATGAATAATCCCTCAATATAGATATCTCTCACTTATTTAAA |  | 0.0996 |  |
| ACAGACGAAGGAGCCGCAAAGAAGTTATTAAAGGATGAATAATCCCTCAATATATATATCTCTCACTTATTTAAA |  | 0.16 |  |
| ACAGACGAAGGAGCCGCAAAGAAGTTATTAAAGGATGAATAATCCCTCAATATGAATATCTCTCACTTATTTAAA | 0.094 | 0.0586 |  |
| ACAGACGAAGGAGCCGCAAAGAAGTTATTAAAGGATGAATAATCCCTCAATATTAATATCTCTCACTTATTTAAA |  | 0.0494 |  |
| ACAGACGAAGGAGCCGCAAAGAAGTTATTAAAGGATGAATAATCCCTCAATGTAAATATCTCTCACTTATTTAAA | 0.0901 | 0.0731 |  |
| ACAGACGAAGGAGCCGCAAAGAAGTTATTAAAGGATGAATAATCCCTCAATTTAAATATCTCTCACTTATTTAAA | 0.088 | 0.0949 |  |
| ACAGACGAAGGAGCCGCAAAGAAGTTATTAAAGGATGAATAATCCCTCACTATAAATATCTCTCACTTATTTAAA | 0.113 | 0.152 |  |
| ACAGACGAAGGAGCCGCAAAGAAGTTATTAAAGGATGAATAATCCCTCAGTATAAATATCTCTCACTTATTTAAA |  | 0.122 |  |
| ACAGACGAAGGAGCCGCAAAGAAGTTATTAAAGGATGAATAATCCCTCATTATAAATATCTCTCACTTATTTAAA |  | 0.245 |  |
| ACAGACGAAGGAGCCGCAAAGAAGTTATTAAAGGATGAATAATCCCTCCATATAAATATCTCTCACTTATTTAAA |  | 0.0862 |  |

| Sequence | cleaved RNA product abundance [1] | cleaved RNA product abundance [2] | cleaved RNA product abundance [3] |
| --- | --- | --- | --- |
| ACAGACGAAGGAGCCGCAAAGAAGTTATTAAAGGATGAATAATCCCTCCTTATAAATATCTCTCACTTATTTAAA |  | 0.0791 |  |
| ACAGACGAAGGAGCCGCAAAGAAGTTATTAAAGGATGAATAATCCCTCGATATAAATATCTCTCACTTATTTAAA | 0.0861 | 0.0487 |  |
| ACAGACGAAGGAGCCGCAAAGAAGTTATTAAAGGATGAATAATCCCTCTATATAAAAATCTCTCACTTATTTAAA |  | 0.229 |  |
| ACAGACGAAGGAGCCGCAAAGAAGTTATTAAAGGATGAATAATCCCTCTATATAAATATCTCTCACTTATTTAAA | 0.132 | 0.18 |  |
| ACAGACGAAGGAGCCGCAAAGAAGTTATTAAAGGATGAATAATCCCTGAATATAAATATCTCTCACTTATTTAAA | 0.133 | 0.171 |  |
| ACAGACGAAGGAGCCGCAAAGAAGTTATTAAAGGATGAATAATCCCTTAATATAAATATCTCTCACTTATTTAAA | 1.16 | 1.06 |  |
| ACAGACGAAGGAGCCGCAAAGAAGTTATTAAAGGATGAATAATCCGTCAATATAAATATCTCTCACTTATTTAAA | 0.16 | 0.161 |  |
| ACAGACGAAGGAGCCGCAAAGAAGTTATTAAAGGATGAATAATCCTTCAATATAAATATCTCTCACTTATTTAAA | 0.646 | 0.86 |  |
| ACAGACGAAGGAGCCGCAAAGAAGTTATTAAAGGATGAATAATCTCTCAATATAAATATCTCTCACTTATTTAAA |  | 0.149 |  |
| ACAGACGAAGGAGCCGCAAAGAAGTTATTAAAGGATGAATAATGCCTCAATATAAATATCTCTCACTTATTTAAA | 0.118 | 0.087 |  |
| ACAGACGAAGGAGCCGCAAAGAAGTTATTAAAGGATGAATAATTCCTCAATATAAATATCTCTCACTTATTTAAA | 0.0999 | 0.172 |  |
| ACAGACGAAGGAGCCGCAAAGAAGTTATTAAAGGATGAATACTCCCTCAATATAAATATCTCTCACTTATTTAAA | 0.117 | 0.108 |  |
| ACAGACGAAGGAGCCGCAAAGAAGTTATTAAAGGATGAATAGTCCCTCAATATAAATATCTCTCACTTATTTAAA | 0.124 |  |  |
| ACAGACGAAGGAGCCGCAAAGAAGTTATTAAAGGATGAATATTCCCTAAATATAAATATCTCTCACTTATTTAAA | 0.0923 |  |  |
| ACAGACGAAGGAGCCGCAAAGAAGTTATTAAAGGATGAATATTCCCTCAATATAAATATCTCTCACTTATTTAAA |  | 0.183 |  |
| ACAGACGAAGGAGCCGCAAAGAAGTTATTAAAGGATGAATCATCCCTCAATATAAATATCTCTCACTTATTTAAA | 0.178 | 0.212 |  |
| ACAGACGAAGGAGCCGCAAAGAAGTTATTAAAGGATGAATGATCCCTCAATATAAATATCTCTCACTTATTTAAA | 0.0792 | 0.155 |  |
| ACAGACGAAGGAGCCGCAAAGAAGTTATTAAAGGATGAATTATCCCTCAATATAAATATCTCTCACTTATTTAAA | 0.14 | 0.149 |  |
| ACAGACGAAGGAGCCGCAAAGAAGTTATTAAAGGATGACTAATCCCTCAATATAAATATCTCTCACTTATTTAAA | 0.0975 | 0.133 |  |
